Four variants from IntAct's records for PubMed 19851283 can be followed below.

B1: Transcription factor HFR1 (Arabidopsis thaliana (Mouse-ear cress)), Q9FE22 (parent)
chain: MSNNQAFMELGWRNDVGSLAVKDQGMMSERARSDEDRLINGLKWGYGYFDHDQTDNYLQIVPEIHKEVENAKEDLLVVVPDEHSETDDHHHIKDFSERSDHRFYLRNKHENPKKRRIQVLSSDDESEEFTREVPSVTRKGSKRRRRDEKMSNKMRKLQQLVPNCHKTDKVSVLDKTIEYMKNLQLQLQMMSTVGVNPYFLPATLGFGMHNHMLTAMASAHGLNPANHMMPSPLIPALNWPLPPFTNISFPHSSSQSLFLTTSSPASSPQSLHGLVPYFPSFLDFSSHAMRRL
partner: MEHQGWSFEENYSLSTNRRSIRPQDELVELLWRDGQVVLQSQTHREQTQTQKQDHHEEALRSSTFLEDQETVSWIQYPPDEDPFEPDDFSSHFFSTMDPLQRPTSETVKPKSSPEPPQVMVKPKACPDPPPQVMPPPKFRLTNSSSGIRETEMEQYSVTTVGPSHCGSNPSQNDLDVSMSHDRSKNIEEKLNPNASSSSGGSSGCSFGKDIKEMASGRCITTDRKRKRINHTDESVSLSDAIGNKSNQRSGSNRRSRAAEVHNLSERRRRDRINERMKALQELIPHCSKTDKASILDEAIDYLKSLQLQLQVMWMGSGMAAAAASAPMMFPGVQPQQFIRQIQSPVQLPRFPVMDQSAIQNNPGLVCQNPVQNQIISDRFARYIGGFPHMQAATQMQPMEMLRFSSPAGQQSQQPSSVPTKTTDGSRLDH
B2: Transcription factor HFR1 (Arabidopsis thaliana (Mouse-ear cress)), Q9FE22 (parent)
chain: B1 chain
partner: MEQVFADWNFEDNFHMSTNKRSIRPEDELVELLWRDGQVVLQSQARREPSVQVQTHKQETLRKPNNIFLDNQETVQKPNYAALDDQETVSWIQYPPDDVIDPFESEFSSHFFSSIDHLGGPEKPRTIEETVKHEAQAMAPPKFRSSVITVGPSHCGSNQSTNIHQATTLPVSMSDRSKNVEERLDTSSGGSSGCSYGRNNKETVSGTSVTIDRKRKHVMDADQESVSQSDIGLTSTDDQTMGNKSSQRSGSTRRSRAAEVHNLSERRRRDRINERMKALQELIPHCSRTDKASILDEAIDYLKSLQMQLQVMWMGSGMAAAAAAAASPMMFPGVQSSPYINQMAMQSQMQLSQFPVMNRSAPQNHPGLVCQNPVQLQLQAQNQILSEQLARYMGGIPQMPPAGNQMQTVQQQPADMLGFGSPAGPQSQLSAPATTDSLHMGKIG

The variants in the first assay derive from B1. The following applies: with pif4_arath PIF4, Q8W2F3.
Turning to V172D, the “effect of a mutation on the interaction” value is on record as “disrupting interaction”.
Same read-out and setting: next, L173E: “disrupting interaction”.

The next assay covers variants of B2. To be noted: with pif5_arath PIF5, Q84LH8.
With L173E, the “effect of a mutation on the interaction” value is “disrupting interaction”.
On to V172D, for which the “effect of a mutation on the interaction” value is recorded as “disrupting interaction”.
